Square brackets hold non-standard residues; d marks the D form. A value given as a limit tells only on which side of the number the result lay.

For orientation: IC50 means the concentration that gives 50% inhibition. Lower therefore signals greater potency in that assay.

Assay [1] concerns the target T1, NT receptor NTSR1 (high affinity NTSR1 receptor) on HT29 cells (human (HT29 is stated to be a human …, UniProt P30989 1-418)).
T1 construct: whole, on cells; Endogenous receptor on HT29 cells
Briefly: competitive displacement of [3H]-NT from HT29 cells expressing NTSR1.

Assay [2] has as its target T1, NT receptor NTSR1 (high affinity NTSR1 …). The description is as above. The source holds these as a separate data set.

T1 sequence (P30989 whole entry): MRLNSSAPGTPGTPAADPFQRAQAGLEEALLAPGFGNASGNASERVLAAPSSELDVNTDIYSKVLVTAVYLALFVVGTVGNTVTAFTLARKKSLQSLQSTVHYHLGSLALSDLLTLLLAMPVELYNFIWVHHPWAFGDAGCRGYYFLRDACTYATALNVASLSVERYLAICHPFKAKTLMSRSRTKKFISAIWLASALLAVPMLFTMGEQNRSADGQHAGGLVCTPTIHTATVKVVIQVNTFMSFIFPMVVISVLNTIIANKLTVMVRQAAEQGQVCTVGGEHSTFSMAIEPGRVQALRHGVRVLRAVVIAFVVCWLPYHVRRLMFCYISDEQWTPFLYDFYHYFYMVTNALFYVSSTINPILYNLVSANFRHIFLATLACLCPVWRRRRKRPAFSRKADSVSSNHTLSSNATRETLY

B1: Ac-Lys-[D-Tyr^11]NT(8-13) (peptide)
peptide: Ac-KRRP[dY]IL-OH
SMILES: CC[C@H](C)[C@H](NC(=O)[C@@H](Cc1ccc(O)cc1)NC(=O)[C@@H]1CCCN1C(=O)[C@H](CCCNC(=N)N)NC(=O)[C@H](CCCNC(=N)N)NC(=O)[C@H](CCCCN)NC(C)=O)C(=O)N[C@@H](CC(C)C)C(=O)O
notes: also called AcLysNT(8-13)D-tyr11; AcLysNT(8-13)(D-Tyr11)
For B1, the “fold weaker binding than native NT” value in assay [1] is more than 1000 fold. In addition, the IC50 in assay [2] came out at 5.39 µM.

Values taken from patent publication US20160263235A1 (ANGIOCHEM, published 2016).
